Reference: PMC7542365 (mBio, 2020)

Target: T1, A/Brevig Mission/1/1918 H1N1 NA, soluble tetramer with His tag attached (influenza A virus A/Brevig …)
T1 chain: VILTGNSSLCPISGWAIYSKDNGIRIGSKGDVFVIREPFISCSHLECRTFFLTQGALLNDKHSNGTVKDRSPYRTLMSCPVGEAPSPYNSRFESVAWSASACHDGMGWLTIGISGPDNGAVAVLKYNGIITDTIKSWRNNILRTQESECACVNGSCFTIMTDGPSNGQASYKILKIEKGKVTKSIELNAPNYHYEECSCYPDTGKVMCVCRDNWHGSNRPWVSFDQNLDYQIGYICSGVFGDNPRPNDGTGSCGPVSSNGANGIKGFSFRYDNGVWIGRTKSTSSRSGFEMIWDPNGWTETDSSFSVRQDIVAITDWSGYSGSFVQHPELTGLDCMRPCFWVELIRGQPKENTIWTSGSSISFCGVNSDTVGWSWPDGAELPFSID
Assay: SPR

B1: Z2B3-D102R Fab (Fab, V domains shown)
VH: EVQLVQSGAEVKKPGSSVKVSCKASGGPFSSYGFSWVRQAPGQGLEWMGGIIPVYGTTNYAQKFQGRVTITADESTSTAYMELSSLKSEDTAVYYCARDLQRTPMVDRIIGSYYYYNGLDVWGQGTTVTVSS
VL: QSVLTQPASVSGSPGQSITISCTGASSDVGDYNYVSWYQQHPGKAPKLMIYDVSNRPSGVSNRFSGSKSGDTASLTISGLQAEDEADYYCSSYTRSSSVVFGGGTKLTVL
Kd: 1.67 µM
